Data as given in the supplement of paper PMC7877785.
± gives the uncertainty stated by the source.

Experiment: self-splicing fitness, log relative to wild type (ln ratio); higher = more splicing; Tetrahymena group I intron in knt gene, E. coli kanamycin selection, DiMSum; sequences stand for … in CUCUCU…GGAGGGAAAAGUUAUCAGGCAUGCACCUGGUAGCUAGUCUUUAAACCAAUAGAUUGCAUCGGUUUAAAAGGCAAGACCGUCAAAUUGCGGGAAAGGGGUCAACAGCCGUUCAGUACCAAGUCUCAGGGGAAACUUUGAGAUGGCCUUGCAAAGGGUAUGGUAAUAAGCUGACGGACAUGGUCCUAACCACGCAGCCAAGUCCUAAGUCAACAGAUCUUCUGUUGAUAUGGAUGCAGUUCACAGACUAAAUGUCGGUCGGGGAAGAUGUAUUCUUCUCAUAAGAUAUAGUCGGACCUCUCCUUAAUGGGAGCUAGCGGAUGAAGUGAUGCAACACUGGAGCCGCUGGGAACUAAUUUGUAUGCGAAAGUAUAUUGAUUAGUUUUGGAGUACUCGUGGUCG
Summary of the method: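 Pooled colonies went to amplicon sequencing on an Illumina HiSeq 2500 after six replicate transformations. The plates were LB agar with 100 μg/mL carbenicillin, 50 μM IPTG and 0.2% rhamnose, with or without 25 μg/mL kanamycin, incubated overnight at 37°C or 30°C. The E. coli BL21(DE3) library had all eight P1ex-region intron nucleotides randomised, the intron placed in the knt kanamycin-resistance gene on pET-22b(+). DiMSum fitness is the error-weighted combination of replicate fold changes, kanamycin against none, normalised to wild type.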

Sequence	self-splicing fitness (ln) (30 °C)	self-splicing fitness (ln) (37 °C)
GUAUAGCAAUAUUACGCGUC	-2.87 ± 0.27	-0.113 ± 0.24
ACCGAGCAAUAUUACGGGAA	-2.52 ± 0.21	-2.56 ± 0.22
CCACAGCAAUAUUACGGCCC	-2.78 ± 0.29	
AGACAGCAAUAUUACGUUAU	-2.29 ± 0.1	-2.06 ± 0.12
AAGCAGCAAUAUUACGGCUU	-3.42 ± 0.14	-0.925 ± 0.12
CCAGAGCAAUAUUACGGGAA		0.0973 ± 0.28
UGAGAGCAAUAUUACGAACU	-3.05 ± 0.43	-2.02 ± 0.24
AAGUAGCAAUAUUACGCGGC		0.207 ± 0.41
ACAAAGCAAUAUUACGGGGG	-2.81 ± 0.13	-2.19 ± 0.16
AAGCAGCAAUAUUACGGAUG	-3.17 ± 0.2	-2.57 ± 0.2
CUGGAGCAAUAUUACGGGAG	-3.19 ± 0.28	-0.913 ± 0.19
UAUGAGCAAUAUUACGCCCA	-2.3 ± 0.27	0.171 ± 0.49
AGUAAGCAAUAUUACGGGGA	-3.89 ± 0.31	-2.3 ± 0.3
GGCCAGCAAUAUUACGUGGC	-0.533 ± 0.25	-1.69 ± 0.35
CCAGAGCAAUAUUACGUCUG	-3.53 ± 0.2	-1.63 ± 0.14
ACUAAGCAAUAUUACGUGGU	-3.41 ± 0.15	-2.73 ± 0.21
GCGUAGCAAUAUUACGAGCA	-1.28 ± 0.082	-0.574 ± 0.094
AAAUAGCAAUAUUACGCGGC		-2.2 ± 0.42
UACUAGCAAUAUUACGAGGG	-2.3 ± 0.13	-2.52 ± 0.17
GUAUAGCAAUAUUACGAACA	-2.44 ± 0.27	-1.21 ± 0.27
AGACAGCAAUAUUACGACAA	-1.34 ± 0.12	-1.02 ± 0.12
GACUAGCAAUAUUACGGUCG	-2.05 ± 0.09	-0.165 ± 0.1
AUACAGCAAUAUUACGGUGG	-2.95 ± 0.11	-2.92 ± 0.15
GAUCAGCAAUAUUACGUCCA	-0.96 ± 0.18	-0.173 ± 0.17
GUAGAGCAAUAUUACGAGAG		-2.05 ± 0.36
AUGCAGCAAUAUUACGAAGG	-3.78 ± 0.37	-2.89 ± 0.41
CUCCAGCAAUAUUACGGUAA	-1.4 ± 0.13	-1.8 ± 0.15

Sequence	self-splicing fitness (ln) (30 °C)	self-splicing fitness (ln) (37 °C)
GCGUAGCAAUAUUACGUUAU	-3.72 ± 0.35	-1.89 ± 0.18
CAUAAGCAAUAUUACGGAGU	-3.14 ± 0.15	-2.35 ± 0.2
ACGGAGCAAUAUUACGGGUA	-2.34 ± 0.25	-3.02 ± 0.32
GCCGAGCAAUAUUACGGUUU	-2.38 ± 0.098	-0.815 ± 0.095
UGUGAGCAAUAUUACGUGUC		-1.75 ± 0.28
AACAAGCAAUAUUACGACGC	-0.761 ± 0.066	-0.386 ± 0.076
AGCUAGCAAUAUUACGAAAU	-2.4 ± 0.15	-1.83 ± 0.2
AUAGAGCAAUAUUACGCUGG	-1.97 ± 0.14	-1.62 ± 0.2
CGUUAGCAAUAUUACGAAAA	-2.76 ± 0.49	-1.83 ± 0.3
UUUUAGCAAUAUUACGCGAC	-2.52 ± 0.34	
ACAUAGCAAUAUUACGCAGA	-2.47 ± 0.14	-1.74 ± 0.14
AGGCAGCAAUAUUACGCCGU	-1.92 ± 0.19	-0.237 ± 0.17
CCUGAGCAAUAUUACGUCUG	-2.44 ± 0.14	-1.4 ± 0.13
GUUGAGCAAUAUUACGGUGA		-2.78 ± 0.44
GAGUAGCAAUAUUACGCAUC	-2.66 ± 0.32	-2.17 ± 0.28
CCCCAGCAAUAUUACGUUCC	-3.87 ± 0.24	-3.3 ± 0.3
ACGUAGCAAUAUUACGUCUU	-3.76 ± 0.16	-1.92 ± 0.15
ACUGAGCAAUAUUACGCCAU	-2.4 ± 0.16	-2.74 ± 0.27
UAUCAGCAAUAUUACGUUGA	-2.15 ± 0.18	-1.95 ± 0.18
GUCUAGCAAUAUUACGGCCA	-1.87 ± 0.35	-0.587 ± 0.22
CGUAAGCAAUAUUACGGCGC	-2.21 ± 0.26	-2.2 ± 0.42
GAUCAGCAAUAUUACGCUCA	-0.493 ± 0.084	-0.611 ± 0.1
CGGCAGCAAUAUUACGGACG	-2.73 ± 0.21	-2.42 ± 0.28
AUGAAGCAAUAUUACGACAA	0.158 ± 0.11	0.0912 ± 0.12
ACAAAGCAAUAUUACGAGGU	-4.39 ± 0.2	-2.78 ± 0.18
UUCGAGCAAUAUUACGACCA	-2.28 ± 0.43	-1.33 ± 0.28
AUAAAGCAAUAUUACGAUCG	-0.0352 ± 0.072	0.19 ± 0.097

Sequence	self-splicing fitness (ln) (30 °C)	self-splicing fitness (ln) (37 °C)
GCUGAGCAAUAUUACGUUCC	-1.48 ± 0.2	-1.84 ± 0.35
GUGUAGCAAUAUUACGAGCU	-2.36 ± 0.17	-0.678 ± 0.21
GACUAGCAAUAUUACGUAAG	-0.946 ± 0.087	-0.709 ± 0.11
CUCCAGCAAUAUUACGCUGA	-2.59 ± 0.18	-2.65 ± 0.22
CGCUAGCAAUAUUACGGCUA	-1.91 ± 0.31	
ACGCAGCAAUAUUACGCAGC	-3.49 ± 0.18	-2.16 ± 0.25
CUCCAGCAAUAUUACGCCAC	-2.7 ± 0.35	
CCCGAGCAAUAUUACGGGCC	-3.99 ± 0.27	-2.26 ± 0.26
ACAGAGCAAUAUUACGCCCU	-3.23 ± 0.23	-2.02 ± 0.3
GUUCAGCAAUAUUACGCCUA	-0.396 ± 0.15	0.127 ± 0.14
UUGCAGCAAUAUUACGUCGC	-3.09 ± 0.28	-2.16 ± 0.35
UGAUAGCAAUAUUACGUGAC	-3.54 ± 0.29	-1.82 ± 0.29
CUUCAGCAAUAUUACGACGC	-0.697 ± 0.26	0.21 ± 0.28
GGCAAGCAAUAUUACGGCCG	-1.09 ± 0.11	0.00962 ± 0.13
GGUAAGCAAUAUUACGGGUA	-1.98 ± 0.22	-1.71 ± 0.18
AAGGAGCAAUAUUACGCCAG	-2.29 ± 0.26	-3.1 ± 0.35
ACGAAGCAAUAUUACGCUGG	-1.07 ± 0.098	-0.428 ± 0.11
AUAAAGCAAUAUUACGUAUG	-2.13 ± 0.097	-1.34 ± 0.12
UUGGAGCAAUAUUACGGGCC		-1.33 ± 0.42
ACCUAGCAAUAUUACGCUAU	-1.89 ± 0.084	-1.1 ± 0.1
GGUUAGCAAUAUUACGGUUA	-1.23 ± 0.11	-0.486 ± 0.082
CUUCAGCAAUAUUACGAGUC		-2.56 ± 0.18
CUCAAGCAAUAUUACGUAGA	-3.23 ± 0.1	-1.53 ± 0.11
UAUUAGCAAUAUUACGCGGA	-2.1 ± 0.2	-1.08 ± 0.13
UGGCAGCAAUAUUACGUUAC	-4.11 ± 0.46	-2.46 ± 0.25
